Source: patent publication US20210221899A1 (published 2021)
Changes are numbered by the printed parent chain.

B1: can48L2VH_H112A (antibody, V domains shown)
VH: EVQLVESGGDLVKPGGSLRLSCVASGFTFSTYGINWVRQAPGKGLQWVAYISSGGSSTYYADPVKGRFTISRDDAKNMLYLQMNSLRAEDTAIYYCAGSRYTYAYGGGYEFAFWGQGTLVTVSS
VL: QAVLNQPASVSGALGQKVTISCSGSTMDIDIFGVSWYQQLPGKAPKLLVDSDGDRPSGIPDRFSGSRSGNSGTLTITGLQAEDEADYHCQSGDSTLGALAIFGGGTHVTVL
notes: CDR scanning mutant of ZTS-842 (48L2)
B2: can48L2VL_I101A (antibody, V domains shown)
VH: B1 VH with A112H
VL: B1 VL with I101A
notes: as for B1
B3: can48L2VL_L96A (antibody, V domains shown)
VH: B1 VH with A112H
VL: B1 VL with L96A
notes: as for B1
B4: can48L2VL_F32A (antibody, V domains shown)
VH: B1 VH with A112H
VL: B1 VL with F32A
notes: as for B1
B5: can48L2VL_A100L (antibody, V domains shown)
VH: B1 VH with A112H
VL: B1 VL with A100L
notes: as for B1
B6: can48L2VH_S57A (antibody, V domains shown)
VH: B1 VH with S57A, A112H
VL: B1 VL
notes: as for B1
B7: can48L2VH_S52A (antibody, V domains shown)
VH: B1 VH with S52A, A112H
VL: B1 VL
notes: as for B1
B8: can48L2VL_I31A (antibody, V domains shown)
VH: B1 VH with A112H
VL: B1 VL with I31A
notes: as for B1
B9: can48L2VL_G53A (antibody, V domains shown)
VH: B1 VH with A112H
VL: B1 VL with G53A
notes: as for B1
B10: can48L2VL_L99A (antibody, V domains shown)
VH: B1 VH with A112H
VL: B1 VL with L99A
notes: as for B1
B11: can48L2VL_D28A (antibody, V domains shown)
VH: B1 VH with A112H
VL: B1 VL with D28A
notes: as for B1
B12: can48L2VL_G97A (antibody, V domains shown)
VH: B1 VH with A112H
VL: B1 VL with G97A
notes: as for B1
B13: can48L2VL_G92A (antibody, V domains shown)
VH: B1 VH with A112H
VL: B1 VL with G92A
notes: as for B1
B14: can48L2VL_I29A (antibody, V domains shown)
VH: B1 VH with A112H
VL: B1 VL with I29A
notes: as for B1
B15: can48L2VH_I51A (antibody, V domains shown)
VH: B1 VH with I51A, A112H
VL: B1 VL
notes: as for B1
B16: can48L2VL_A98L (antibody, V domains shown)
VH: B1 VH with A112H
VL: B1 VL with A98L
notes: as for B1
B17: can48L2VL_D52A (antibody, V domains shown)
VH: B1 VH with A112H
VL: B1 VL with D52A
notes: as for B1
B18: can48L2VL_D93A (antibody, V domains shown)
VH: B1 VH with A112H
VL: B1 VL with D93A
notes: as for B1
B19: can48L2VH_T58A (antibody, V domains shown)
VH: B1 VH with T58A, A112H
VL: B1 VL
notes: as for B1
B20: can48L2VL_G33A (antibody, V domains shown)
VH: B1 VH with A112H
VL: B1 VL with G33A
notes: as for B1
B21: can48L2VH_S56A (antibody, V domains shown)
VH: B1 VH with S56A, A112H
VL: B1 VL
notes: as for B1
B22: can48L2VH_T31A (antibody, V domains shown)
VH: B1 VH with T31A, A112H
VL: B1 VL
notes: as for B1
B23: can48L2VL_D30A (antibody, V domains shown)
VH: B1 VH with A112H
VL: B1 VL with D30A
notes: as for B1
B24: can48L2VH_S53A (antibody, V domains shown)
VH: B1 VH with S53A, A112H
VL: B1 VL
notes: as for B1

Assays:
Assay in all cases: SPR (Biacore T200), 100 nM mAb on NGF chip, similarity to parent mAb
human NGF = molecular target: T1, human NGF (human, UniProt P01138 122-241)
T1 construct: also called human Nerve Growth Factor; hN
T1 chain: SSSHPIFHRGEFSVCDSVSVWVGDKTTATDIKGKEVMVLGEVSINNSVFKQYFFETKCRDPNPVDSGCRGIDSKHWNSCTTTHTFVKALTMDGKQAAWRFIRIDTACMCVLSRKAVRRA
Source text: (§1) The region of an antibody responsible for antigen recognition represents the paratope. A paratope is created by a combination of amino acids in the complementarity determining regions (CDRs) of both the heavy and light chain variable regions. The binding between antibody and antigen is often mediated by side chains of CDR residues with side chains or carbohydrate moieties of the antigen. To help define critical side chains involved in antibody recognition alanine scanning mutagenesis was performed on each CDR residue in both the heavy and light chain, the technique as described by Cunningham and Wells (1989) Science, Vol. 244, Issue 4908, pp. 1081-1085. These mutants were then individually tested for the ability to NGF using the Biacore. […] Values were then compared to the wild type antibodies and are represented in the tables as a percent of wild type binding. The data presented in Tables 4 and 5 below are shown as a “percent similarity score” compared to wild type.
(§2) The mean response unit of four replicates of the parent mAb+/−3 standard deviations was used to generate parameters to define a threshold of response units comprising both the on- and off-rates antibody binding. The percentage of data points for each mutant fell within this threshold was then used to define a “% similarity score”. […] Results from substitution of alanine at each CDR position

canine NGF = molecular target: T2, canine NGF (canine, UniProt Q29074 110-229 (pig entry), limits assumed)
T2 construct: The protein was secreted from CHO cells and purified; also called cNGF; canine β-NGF
T2 chain: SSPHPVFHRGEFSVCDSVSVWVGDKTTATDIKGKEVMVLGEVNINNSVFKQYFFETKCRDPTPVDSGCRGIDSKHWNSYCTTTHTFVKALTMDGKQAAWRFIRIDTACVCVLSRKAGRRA
Source text: as §1, §2

rat NGF = molecular target: T3, rat NGF (rat, UniProt P25427 122-241)
T3 construct: also called rN
Source text: as §1, §2

T3 sequence (P25427 122-241 limits assumed): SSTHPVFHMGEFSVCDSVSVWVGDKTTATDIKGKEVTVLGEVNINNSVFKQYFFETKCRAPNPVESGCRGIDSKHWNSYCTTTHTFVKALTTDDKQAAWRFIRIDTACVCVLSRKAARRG

Binder | Percent Similarity Score (KD on hN) (human NGF) [%] | Percent Similarity Score (KD on cN) (canine NGF) [%] | Percent Similarity Score (KD on rN) (rat NGF) [%]
B1 | 51.2 | 40.3 | 98.5
B2 | 100 | 97.3 | 99.6
B3 | 99.9 | 90 | 93.2
B4 | 44.3 | 19.6 | 66
B5 | 99.9 | 97.8 | 98.3
B6 | 100 | 98.4 | 99.7
B7 | 100 | 99.4 | 99.8
B8 | 86.2 | 32.9 | 39.9
B9 | 100 | 100 | 100
B10 | 99.8 | 96.8 | 98.4
B11 | 99.6 | 97 | 97.7
B12 | 100 | 92.4 | 99.6
B13 | 99.3 | 93.6 | 97
B14 | 97.8 | 47 | 57.2
B15 | 81.8 | 24.2 | 37.2
B16 | 99.8 | 97.3 | 98.4
B17 | 100 | 99.7 | 99.9
B18 | 99.9 | 98.7 | 99.5
B19 | 99.9 | 99.1 | 99.7
B20 | 56.6 | 17.5 | 21.2
B21 | 99.9 | 99.3 | 99.8
B22 | 99.9 | 99.6 | 99.9
B23 | 99.7 | 98.3 | 98.7
B24 | 100 | 97.8 | 99.4
